# Data: the supplement of paper PMC10567573
# B1: SLC22A15 (parent)
# chain: IAQYALLGYFIRSWRTLAILVNLQ
# Variants of: B1
# Test: protein stability index of a GFP-peptide fusion (GPS, HEK-293T) (PSI 1-6); higher = more stable
# Details: c terminus: a fixed tail appended
# 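Note: lentivirally expressed fusions sorted by FACS into six bins by GFP to DsRed ratio, PSI derived from sequencing read proportions per bin multiplied by bin number.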
row,Variant,protein stability index
1,IAQYALLGYFIRSWRTLAILVELQ,2.57
2,IAQYALLGYFIRSWRTLAILVMLQ,2.6
3,IAQYALLGYFIRSWRTLAILVYLQ,1.37
4,IAQYALLGYFIRSWRTLAILVWLQ,3.89
5,IAQYALLGYFIRSWRTLAILVQLQ,3.36
6,IAQYALLGYFIRSWRTLAILVKLQ,2.52
7,IAQYALLGYFIRSWRTLAILVGLQ,1.88
8,IAQYALLGYFIRSWRTLAILVHLQ,2.27
9,IAQYALLGYFIRSWRPLAILVNLQ,5.02
10,IAQYALLGYFIRSWRRLAILVNLQ,3.13
11,IAQYALLGYFIRSWRQLAILVNLQ,3.17
12,IAQYALLGYFIRSWRGLAILVNLQ,2.8
13,IAQYALLGYFIRSWRNLAILVNLQ,2.63
14,IAQYALLGYFIRSWRCLAILVNLQ,4.17
15,IAQYALLGYFIRSWRHLAILVNLQ,3.46
16,IAQYALLGYFIRSWRSLAILVNLQ,3.05
17,IAQYALLGYFIRSWRELAILVNLQ,2.07
18,IAQYALLGYFIRSWRKLAILVNLQ,1.98
19,IAQYALLGYFIRSWRVLAILVNLQ,3.34
20,IAQYALLGYFIRSWRLLAILVNLQ,2.43
21,IAQYALLGYFIRSWRDLAILVNLQ,1.58
22,IAQYALLGYFIRSWRYLAILVNLQ,3.88
23,IAQYALLGYFIRSWRALAILVNLQ,3.28
24,IAQYALLGYFIRSWRMLAILVNLQ,3.23

row,Variant,protein stability index
1,IAQYALLGYFIRSWRILAILVNLQ,4.01
2,IAQYALLGYFIRSWRTLAILENLQ,2.14
3,IAQYALLGYFIRSWRTLAILFNLQ,2.86
4,IAQYALLGYFIRSWRTLAILTNLQ,3.6
5,IAQYALLGYFIRSWRTLAILQNLQ,2.24
6,IAQYALLGYFIRSWRTLAILSNLQ,2.08
7,IAQYALLGYFIRSWRTLAILCNLQ,2.52
8,IAQYALLGYFIRSWRTLAILHNLQ,2.69
9,IAQYALLGYFIRSWRTLAILDNLQ,2.85
10,IAQYALLGYFIRSWRTLAILANLQ,2.78
11,IAQYALLGYFIRSWRTLAILNNLQ,2.8
12,IAQYALLGYFIRSWRTLAILRNLQ,2.7
13,IAQYALLGYFIRSWRTLAILYNLQ,2.37
14,IAQYALLGYFIRSWRTLAILGNLQ,1.76
15,IAQYALLGYFIRSWRTLAILKNLQ,2.38
16,IAQYALLGYFIRSWRTLAILINLQ,4.67
17,IAQYALLGYFIRSWRTLAILLNLQ,3.19
18,IAQYALLGYFIRSWRTLAILPNLQ,3.37
19,IAQYALLGYFIRSWRTLYILVNLQ,3.11
20,IAQYALLGYFIRSWRTLSILVNLQ,3.54
21,IAQYALLGYFIRSWRTLFILVNLQ,3.68
22,IAQYALLGYFIRSWRTLMILVNLQ,2.17
23,IAQYALLGYFIRSWRTLKILVNLQ,1.91
24,IAQYALLGYFIRSWRTLGILVNLQ,3.28

row,Variant,protein stability index
1,IAQYALLGYFIRSWRTLLILVNLQ,3.84
2,IAQYALLGYFIRSWRTLNILVNLQ,3.65
3,IAQYALLGYFIRSWRTLRILVNLQ,2.01
4,IAQYALLGYFIRSWRTLPILVNLQ,3
5,IAQYALLGYFIRSWRTLHILVNLQ,2.25
6,IAQYALLGYFIRSWRTLIILVNLQ,3.41
7,IAQYALLGYFIRSWRTLQILVNLQ,2.15
8,IAQYALLGYFIRSWRTLCILVNLQ,2.44
9,IAQYALLGYFIRSWRTLDILVNLQ,2.57
10,IAQYALLGYFIRSWRTLWILVNLQ,2.12
11,IAQYALLGYFIRSWDTLAILVNLQ,4.08
12,IAQYALLGYFIRSWQTLAILVNLQ,2.52
13,IAQYALLGYFIRSWSTLAILVNLQ,2
14,IAQYALLGYFIRSWETLAILVNLQ,1.81
15,IAQYALLGYFIRSWCTLAILVNLQ,2.86
16,IAQYALLGYFIRSWGTLAILVNLQ,4.28
17,IAQYALLGYFIRSWVTLAILVNLQ,2.88
18,IAQYALLGYFIRSWWTLAILVNLQ,3.4
19,IAQYALLGYFIRSWMTLAILVNLQ,2.18
20,IAQYALLGYFIRSWATLAILVNLQ,2.1
21,IAQYALLGYFIRSWFTLAILVNLQ,3.18
22,IAQYALLGYFIRSWLTLAILVNLQ,2.95
23,IAQYALLGYFIRSWNTLAILVNLQ,3.78
24,IAQYALLGYFIRSWYTLAILVNLQ,2.65

row,Variant,protein stability index
1,IAQYALLGYFIRSWTTLAILVNLQ,4.03
2,IAQYALLGYFIRSWKTLAILVNLQ,3.15
3,IAQYALLGYFIRSWHTLAILVNLQ,2.65
4,IAQYALLGYFIRSWITLAILVNLQ,3.23
5,IAQYALLGYFIRSWRTLAIQVNLQ,3.19
6,IAQYALLGYFIRSWRTLAIKVNLQ,2.38
7,IAQYALLGYFIRSWRTLAISVNLQ,3.12
8,IAQYALLGYFIRSWRTLAIIVNLQ,5.13
9,IAQYALLGYFIRSWRTLAITVNLQ,2.91
10,IAQYALLGYFIRSWRTLAIGVNLQ,3.27
11,IAQYALLGYFIRSWRTLAIPVNLQ,3.33
12,IAQYALLGYFIRSWRTLAIYVNLQ,2.76
13,IAQYALLGYFIRSWRTLAIMVNLQ,3.89
14,IAQYALLGYFIRSWRTLAIHVNLQ,3.94
15,IAQYALLGYFIRSWRTLAINVNLQ,2
16,IAQYALLGYFIRSWRTLAIWVNLQ,2.32
17,IAQYALLGYFIRSWRTLAIRVNLQ,3.09
18,IAQYALLGYFIRSWRTLAIDVNLQ,2.57
19,IAQYALLGYFIRSWRTLAIEVNLQ,2.77
20,IAQYALLGYFIRSWRTLAICVNLQ,3.7
21,IAQYALLGYFIRSWRTLAIAVNLQ,3.21
22,IAQYALLGYFIRSWRTLAIVVNLQ,2.1
